Measurements: the supplement of paper PMC7877785
± gives the uncertainty stated by the source.

Assay: self-splicing fitness, log relative to wild type (ln ratio); higher = more splicing; Tetrahymena group I intron in knt gene, E. coli kanamycin selection, DiMSum; sequences stand for … in CUCUCU…GGAGGGAAAAGUUAUCAGGCAUGCACCUGGUAGCUAGUCUUUAAACCAAUAGAUUGCAUCGGUUUAAAAGGCAAGACCGUCAAAUUGCGGGAAAGGGGUCAACAGCCGUUCAGUACCAAGUCUCAGGGGAAACUUUGAGAUGGCCUUGCAAAGGGUAUGGUAAUAAGCUGACGGACAUGGUCCUAACCACGCAGCCAAGUCCUAAGUCAACAGAUCUUCUGUUGAUAUGGAUGCAGUUCACAGACUAAAUGUCGGUCGGGGAAGAUGUAUUCUUCUCAUAAGAUAUAGUCGGACCUCUCCUUAAUGGGAGCUAGCGGAUGAAGUGAUGCAACACUGGAGCCGCUGGGAACUAAUUUGUAUGCGAAAGUAUAUUGAUUAGUUUUGGAGUACUCGUGGUCG
Summary of the method: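 A randomised library covering all eight P1ex-region intron nucleotides was built with the intron in the knt kanamycin-resistance gene on pET-22b(+) and held in E. coli BL21(DE3). Cells were grown overnight at 37°C or 30°C on LB agar, with or without 25 μg/mL kanamycin, plus 100 μg/mL carbenicillin, 50 μM IPTG and 0.2% rhamnose, and pooled colonies were amplicon-sequenced on an Illumina HiSeq 2500. DiMSum fitness is the error-weighted combination of wild-type-normalised replicate fold changes, kanamycin versus none.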

Sequence	self-splicing fitness (ln) (30 °C)	self-splicing fitness (ln) (37 °C)
GUAUAGCAAUAUUACGGUCA	-1.5 ± 0.2	-0.663 ± 0.18
GUAUAGCAAUAUUACGGUUA	-1.28 ± 0.11	-0.761 ± 0.098
GUAUAGCAAUAUUACGGUUC	-1.22 ± 0.1	-0.0871 ± 0.12
GUAUAGCAAUAUUACGGUUU	-0.844 ± 0.089	-1.29 ± 0.16
GUAUAGCAAUAUUACGUAAC	-1.95 ± 0.36	-1.98 ± 0.32
GUAUAGCAAUAUUACGUCAA	-2.37 ± 0.37	-2.86 ± 0.32
GUAUAGCAAUAUUACGUCGC	-3.04 ± 0.25	-1.65 ± 0.2
GUAUAGCAAUAUUACGUCGU	-2.22 ± 0.12	-0.949 ± 0.13
GUAUAGCAAUAUUACGUUGG	-3.33 ± 0.31	-1.12 ± 0.26
GUAUAGCAAUAUUACGUUGU	-2.78 ± 0.26	-1.72 ± 0.23
GUAUAGCAAUAUUACGUUUC	-3.37 ± 0.25	-2.36 ± 0.33
GUAUAGCAAUAUUACGUUUG	-4.31 ± 0.46	-2.11 ± 0.2
GUCAAGCAAUAUUACGACCG	-3.14 ± 0.42	–
GUCAAGCAAUAUUACGAGGA	-3.75 ± 0.47	-4.45 ± 0.45
GUCAAGCAAUAUUACGAUAA	-1.8 ± 0.14	-1.58 ± 0.15
GUCAAGCAAUAUUACGAUGA	-2.41 ± 0.17	-1.1 ± 0.11
GUCAAGCAAUAUUACGAUGC	-1.3 ± 0.098	-0.442 ± 0.11
GUCAAGCAAUAUUACGCAAG	-3.29 ± 0.18	-2.48 ± 0.18
GUCAAGCAAUAUUACGCACU	-1.71 ± 0.062	-0.433 ± 0.072
GUCAAGCAAUAUUACGCCUU	-1.61 ± 0.068	-0.671 ± 0.097
GUCAAGCAAUAUUACGCGAG	-1.83 ± 0.11	-1.36 ± 0.12
GUCAAGCAAUAUUACGCUCU	-1.58 ± 0.14	-1.18 ± 0.14
GUCAAGCAAUAUUACGGACU	-4.38 ± 0.39	-2.72 ± 0.26
GUCAAGCAAUAUUACGGAGC	-2.47 ± 0.46	–
GUCAAGCAAUAUUACGGCAA	-2.06 ± 0.15	-1.01 ± 0.094

Sequence	self-splicing fitness (ln) (30 °C)	self-splicing fitness (ln) (37 °C)
GUCAAGCAAUAUUACGGCGA	-2.1 ± 0.14	-0.0443 ± 0.12
GUCAAGCAAUAUUACGGUAU	-1.54 ± 0.075	-0.662 ± 0.085
GUCAAGCAAUAUUACGUGCC	-4.07 ± 0.2	-2.73 ± 0.19
GUCAAGCAAUAUUACGUGCU	-3.07 ± 0.13	-2.7 ± 0.23
GUCAAGCAAUAUUACGUGUU	-2.85 ± 0.089	-1.35 ± 0.089
GUCCAGCAAUAUUACGAAAA	-1.1 ± 0.2	-0.701 ± 0.13
GUCCAGCAAUAUUACGAAUU	-0.818 ± 0.078	0.257 ± 0.097
GUCCAGCAAUAUUACGACAG	-3.57 ± 0.36	-1.93 ± 0.41
GUCCAGCAAUAUUACGAGGA	-2.98 ± 0.27	-2.64 ± 0.3
GUCCAGCAAUAUUACGAGGU	-2.34 ± 0.11	-1.34 ± 0.13
GUCCAGCAAUAUUACGAGUC	-1.23 ± 0.097	-0.164 ± 0.098
GUCCAGCAAUAUUACGAGUU	-1.98 ± 0.095	-1.26 ± 0.091
GUCCAGCAAUAUUACGCGCG	-1.58 ± 0.093	-0.665 ± 0.096
GUCCAGCAAUAUUACGCGGU	-3.19 ± 0.24	-2.14 ± 0.17
GUCCAGCAAUAUUACGCUGC	-1.85 ± 0.34	0.221 ± 0.36
GUCCAGCAAUAUUACGCUUC	-1.38 ± 0.083	-0.138 ± 0.11
GUCCAGCAAUAUUACGGAGC	-2.17 ± 0.087	-2.68 ± 0.088
GUCCAGCAAUAUUACGGAUC	-4.49 ± 0.28	-3.62 ± 0.27
GUCCAGCAAUAUUACGGCUA	-0.25 ± 0.068	0.143 ± 0.073
GUCCAGCAAUAUUACGGGGU	-3.62 ± 0.19	-2.65 ± 0.15
GUCCAGCAAUAUUACGUAUC	-0.611 ± 0.096	-0.264 ± 0.11
GUCCAGCAAUAUUACGUGCG	-1.15 ± 0.085	-1.14 ± 0.12
GUCCAGCAAUAUUACGUGGU	-1.61 ± 0.059	-1.03 ± 0.064
GUCGAGCAAUAUUACGAAGC	-2.37 ± 0.19	-1.85 ± 0.23
GUCGAGCAAUAUUACGACAC	-0.476 ± 0.2	-1.13 ± 0.17

Sequence	self-splicing fitness (ln) (30 °C)	self-splicing fitness (ln) (37 °C)
GUCGAGCAAUAUUACGACCA	–	-0.961 ± 0.42
GUCGAGCAAUAUUACGACCG	-1.69 ± 0.5	–
GUCGAGCAAUAUUACGAGGC	-3.01 ± 0.21	-3.06 ± 0.31
GUCGAGCAAUAUUACGCGAU	-3.36 ± 0.27	–
GUCGAGCAAUAUUACGCGUC	-1.43 ± 0.15	-2.49 ± 0.2
GUCGAGCAAUAUUACGCUAA	–	-1.5 ± 0.2
GUCGAGCAAUAUUACGGACA	-1.8 ± 0.49	-1.95 ± 0.47
GUCGAGCAAUAUUACGGCAA	-3.13 ± 0.31	-1.76 ± 0.29
GUCGAGCAAUAUUACGGUUA	-2.03 ± 0.49	0.142 ± 0.25
GUCGAGCAAUAUUACGUCGA	-3.97 ± 0.42	-2.65 ± 0.44
GUCGAGCAAUAUUACGUGCA	-2.29 ± 0.22	-0.701 ± 0.17
GUCGAGCAAUAUUACGUUGU	–	-2.78 ± 0.37
GUCUAGCAAUAUUACGAACU	-1.9 ± 0.2	-1.12 ± 0.19
GUCUAGCAAUAUUACGACGC	-0.0791 ± 0.12	0.364 ± 0.14
GUCUAGCAAUAUUACGACGU	-0.253 ± 0.15	0.696 ± 0.17
GUCUAGCAAUAUUACGACUC	-0.625 ± 0.13	-0.52 ± 0.15
GUCUAGCAAUAUUACGAGCU	-2.17 ± 0.33	-0.962 ± 0.23
GUCUAGCAAUAUUACGAUUA	-0.177 ± 0.17	0.177 ± 0.12
GUCUAGCAAUAUUACGCAGU	-1.25 ± 0.13	0.0079 ± 0.15
GUCUAGCAAUAUUACGCGGG	-3.1 ± 0.19	-1.98 ± 0.17
GUCUAGCAAUAUUACGCUCC	-1.44 ± 0.18	0.66 ± 0.2
GUCUAGCAAUAUUACGCUGG	-2.84 ± 0.36	-2.2 ± 0.27
GUCUAGCAAUAUUACGCUUU	-0.366 ± 0.066	-0.192 ± 0.08
GUCUAGCAAUAUUACGGAUG	-1.93 ± 0.2	0.0916 ± 0.19
GUCUAGCAAUAUUACGGGAU	-4.48 ± 0.42	-3.39 ± 0.42

Sequence	self-splicing fitness (ln) (30 °C)	self-splicing fitness (ln) (37 °C)
GUCUAGCAAUAUUACGGUGU	-0.578 ± 0.046	-0.0594 ± 0.06
GUCUAGCAAUAUUACGUAGG	-0.837 ± 0.14	-0.942 ± 0.21
GUCUAGCAAUAUUACGUCCG	-2.96 ± 0.28	-0.525 ± 0.19
GUCUAGCAAUAUUACGUCGA	-2.12 ± 0.14	-0.957 ± 0.13
GUCUAGCAAUAUUACGUUUU	-1.2 ± 0.08	-0.759 ± 0.084
GUGAAGCAAUAUUACGACCA	-0.647 ± 0.18	0.84 ± 0.19
GUGAAGCAAUAUUACGAGUG	-0.702 ± 0.094	-0.702 ± 0.13
GUGAAGCAAUAUUACGAGUU	-2.5 ± 0.12	-1.14 ± 0.15
GUGAAGCAAUAUUACGAUCG	-0.499 ± 0.097	0.218 ± 0.1
GUGAAGCAAUAUUACGCAAG	-0.985 ± 0.09	0.0285 ± 0.1
GUGAAGCAAUAUUACGCAUG	-1.5 ± 0.15	-1.23 ± 0.18
GUGAAGCAAUAUUACGCGAA	-1.56 ± 0.11	-0.479 ± 0.12
GUGAAGCAAUAUUACGCGCU	-2.31 ± 0.16	-1.47 ± 0.13
GUGAAGCAAUAUUACGGAAG	-1.94 ± 0.19	0.825 ± 0.21
GUGAAGCAAUAUUACGGAGC	-4.68 ± 0.46	-1.38 ± 0.16
GUGAAGCAAUAUUACGGCUA	-0.323 ± 0.1	0.322 ± 0.12
GUGAAGCAAUAUUACGUAUU	-1.21 ± 0.12	0.0695 ± 0.12
GUGAAGCAAUAUUACGUCAA	-1.07 ± 0.077	-0.245 ± 0.084
GUGAAGCAAUAUUACGUCAG	-0.462 ± 0.076	-0.996 ± 0.08
GUGAAGCAAUAUUACGUCGU	-0.585 ± 0.11	-0.777 ± 0.12
GUGAAGCAAUAUUACGUGAU	-1.97 ± 0.12	-1.03 ± 0.14
GUGAAGCAAUAUUACGUGCU	-1.99 ± 0.091	-0.974 ± 0.1
